The source of these data is article PMC5815136.

Positions count from the first letter of the chain named.

One series concerns the target T1, Ct_Rio2 (Chaetomium thermophilum? (given only as …, UniProt L0BC08 1-396)).
T1 sequence: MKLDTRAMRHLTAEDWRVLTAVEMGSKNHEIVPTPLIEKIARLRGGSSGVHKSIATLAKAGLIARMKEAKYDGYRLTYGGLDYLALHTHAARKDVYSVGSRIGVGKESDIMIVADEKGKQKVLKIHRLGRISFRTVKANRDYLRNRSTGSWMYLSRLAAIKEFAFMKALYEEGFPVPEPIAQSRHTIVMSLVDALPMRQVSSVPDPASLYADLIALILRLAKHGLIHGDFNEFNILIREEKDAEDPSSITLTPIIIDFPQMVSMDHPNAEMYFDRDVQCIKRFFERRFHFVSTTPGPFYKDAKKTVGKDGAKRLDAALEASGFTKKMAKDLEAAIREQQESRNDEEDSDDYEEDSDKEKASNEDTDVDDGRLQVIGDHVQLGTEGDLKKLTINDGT
Put plainly: EMSA.

Another series addresses T2, Ct_Rio2 K106A (Chaetomium thermophilum? (given only as …, UniProt L0BC08 1-396, K106A)).
T2 sequence: T1 sequence with K106A
The series is described as follows: EMSA. A general note: A gel shift assay detects complexes by their altered migration in electrophoresis.

Regarding GGGUUAAUUUGACUCAACACGGGGAAA (structured_RNA) [h31], the binding result with Ct_Rio2 is “binds”. Regarding GGGUUAAUUUGACUCAACACAAAGAAA (structured_RNA) [h31* (h31-Stab)], the binding result with Ct_Rio2 K106A and in the series with Ct_Rio2 was “binds” throughout.
